Data taken from patent US20200392233A1 (ACCELERON PHARMA, published 2020).
Positions count from the first letter of the chain named.

T1: rat Alk7-Fc comprising protein (rat, UniProt P70539 26-113)
T1 construct: not shown: Fc portion and any linker of the Alk7-Fc comprising protein are not described
T1 sequence: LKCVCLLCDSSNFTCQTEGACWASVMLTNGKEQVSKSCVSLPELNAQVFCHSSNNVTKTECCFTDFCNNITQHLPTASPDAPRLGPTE

B1: J02 (antibody, V domains shown)
VH: EVQLLESGGGLVQPGGSLRLSCAASGFTFSVYAMSWVRQAPGKGLEWVSAISGSGDSTVYADSVKGRFTISRDNSKNTLYLQMNSLRAEDTAVYYCAKPSYQPIYWGQGTLVTVSS
VL: DIQMTQSPSSVSASVGDRVTITCRASQGISSWLAWYQQKPGKAPKLLIYAASSLQSGVPSRFSGSGSGTDFTLTISSLQPEDFATYYCQQAASYPLTFGGGTKVEIK
notes: also called mAb J02; ALK7 mAb J02
B2: K02 (antibody, V domains shown)
VH: QVQLVQSGAEVKKPGSSVKVSCKASGGTFSSSAIGWVRQAPGQGLEWMGGIWPIFGTALYAQKFQGRVTITADESTSTAYMELSSLRSEDTAVYYCARDPREYIHVFDIWGQGTMVTVSS
VL: B1 VL with V11L, G28S, W32Y, A34N, A50G, A92Y, Y94F, L96W, T102I
notes: also called mAb K02; KO2
B3: G05 (antibody, V domains shown)
VH: QVQLVQSGAEVKKPGSSVKVSCKASGGTFSGQAISWVRQAPGQGLEWMGGIIPSFGTARYAQKFQGRVTITADESTSTAYMELSSLRSEDTAVYYCARTPYYDSSGYLDVWGQGTMVTVSS
VL: DIQMTQSPSSLSASVGDRVTITCQASHDIDNYLNWYQQKPGKAPKLLIYYASNLKTGVPSRFSGSGSGTDFTFTISSLQPEDIATYYCQQSRASPPTFGGGTKVEIK
notes: also called mAb G05; ALK7 mAb G05
B4: C03 (antibody, V domains shown)
VH: QLQLQESGPGLVKPSETLSLTCTVSGGSISSSAYYWAWIRQPPGKGLEWIGSIYLSGSTTYNPSLKSRVTISVDTSKNQFSLKLSSVTAADTAVYYCARDGRYQSRSPDYYYGMDVWGQGTTVTVSS
VL: EIVLTQSPGTLSLSPGERATLSCKASQSVSSSYLAWYQQKPGQAPRLLIYGAFSRANGIPDRFSGSGSGTDFTLTISRLEPEDFAVYYCQQLVSYPFTFGGGTKVEIK
notes: also called mAb C03; ALK7 mAb C03
B5: L02 (antibody, V domains shown)
VH: QVQLVQSGAEVKKPGASVKVSCKASGYTFAGYNMHWVRQAPGQGLEWVGIINPNSGWTNYAQKFQGRVTMTRDTSVSAAYMELSRLRSDDTAVYYCARDPVGARYEVFDYWGQGTLVTVSS
VL: EIVMTQSPATLSVSPGERATLSCRASQSVSSALAWYQQKPGQAPRLLIYSAFTRASGIPARFSGSGSGTEFTLTISSLQSEDFAVYYCQQAWAFPLTFGGGTKVEIK
notes: also called mAb L02
B6: J01 (antibody, V domains shown)
VH: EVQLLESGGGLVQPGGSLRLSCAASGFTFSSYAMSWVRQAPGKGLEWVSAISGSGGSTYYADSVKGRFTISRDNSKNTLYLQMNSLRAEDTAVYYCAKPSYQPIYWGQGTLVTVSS
VL: B1 VL
notes: also called antibody J01

Target: T2, ALK7-Fc comprising protein
T2 construct: It is probably the human protein
T2 sequence (Q8NER5 22-113): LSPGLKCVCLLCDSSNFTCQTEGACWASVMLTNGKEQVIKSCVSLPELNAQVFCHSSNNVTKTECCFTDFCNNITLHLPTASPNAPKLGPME
Test: SPR (Biacore T100/T200) at 25 °C, antibody captured on FAB chip, ALK7-Fc analyte, 1:1 fit
Method: (§1) Experiments were performed using a Biacore T100/T200 biosensor (Biacore/GE Healthcare) at 25 and 37° C. ALK7 antibodies were captured on custom made FAB chip. A concentration series of ALK7-Fc comprising protein was injected over the flow cells at a flow rate of […]. To obtain kinetic rate constants the corrected data were fit to a 1:1 interaction model using BiaEvaluation software (GE Healthcare). The equilibrium binding constant KD was determined by the ratio of binding rate constants kd/ka.

Binder | Kd [nM] | koff [s⁻¹] | kon [M⁻¹ s⁻¹]
B1 | 5.33 | 0.000126 | 23600
B2 | 12.4 | 0.000291 | 23500
B3 | 0.87 | 2.59e-05 | 29900
B4 | 0.33 | 1.27e-05 | 38300
B5 | 0.44 | 1.21e-05 | 27400

Target: T1, rat Alk7-Fc comprising protein
Test: SPR (Biacore T100/T200), antibody captured on FAB chip, Alk7-Fc analyte, 1:1 fit
Method: as §1

Binder | koff [s⁻¹]
B6 | 0.000478
